Patent US5232912

Target: bovine thrombin (bovine) (UniProt P00735)

Row | Substance | Fibrin Clot Inhibition
1 | Suc-Tyr-Glu-Tiq-Ile-Pro-Glu-Glu-Ala-Cha-D-Glu-OH (peptide) | 0.82
2 | Suc-Tyr-Glu-Pip-Ile-Pro-Glu-Glu-Ala-Cha-D-Glu-OH (peptide) | 1.9

Continued, values first:

Row | Fibrin Clot Inhibition | Substance
3 | 0.63 | Suc-Tyr-Glu-Pro-Ile-Tiq-Glu-Glu-Ala-Cha-D-Glu-OH (peptide)
4 | 0.88 | Suc-Tyr-Glu-Pro-Ile-Pip-Glu-Glu-Ala-Cha-D-Glu-OH (peptide)
5 | 0.38 | Suc-Tyr-Glu-Pro-Ile-Azd-Glu-Glu-Ala-Cha-D-Glu-OH (peptide)
6 | 0.51 | Suc-Tyr-Glu-Azd-Ile-Pro-Glu-Glu-Ala-Cha-D-Glu-OH (peptide)
